Results on one substance are retold here after US6348573B1, “Compositions and methods for identifying apoptosis signaling pathway inhibitors and activators” (The Regents of the University of Michigan, priority 1998, dated 2002).

For one experiment, the target named is T1, FADD (Homo sapiens, UniProt Q13158).
T1 construct: made in house
T1 sequence (Q13158 1-208): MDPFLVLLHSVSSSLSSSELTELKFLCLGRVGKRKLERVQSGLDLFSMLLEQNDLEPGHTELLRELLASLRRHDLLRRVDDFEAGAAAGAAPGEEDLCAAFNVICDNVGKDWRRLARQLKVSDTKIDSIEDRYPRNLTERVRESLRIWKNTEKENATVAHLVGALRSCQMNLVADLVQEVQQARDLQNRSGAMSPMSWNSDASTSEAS
The experiment is described as follows: In vitro phosphorylation of recombinant FADD by RICK immunoprecipitates. It counts as biochemical. The conditions noted are these: immunoprecipitates from 293T cells, 5 μM [γ-32P]ATP. An excerpt: CIPERK proteins in total lysate were detected by immunoblotting with mAb to Flag (middle panel). Recombinant FADD on the same filter used in (A) was detected by immunoblotting, with rabbit polyclonal anti-(His)6 antibody (lower panel). Note CIPERK was autophosphorylated. The estimated molecular size is shown on the left [293T cells were transfected with vector control or plasmid expressing Flag-CIPERK (WT) or Flag-CIPERK-K38M (mt), and then CIPERK proteins were immunoprecipitated by mAb to Flag and incubated with recombinant FADD and 5 μM [γ-^32P]ATP].

For the next experiment, the target named is RICK (Homo sapiens, UniProt O43353). The experiment in a line: Autophosphorylation of RICK. The conditions noted are these: immunoprecipitated from 293T cells, [γ-32P]ATP.
Sequence of RICK (O43353 with tags, fused parts or gaps): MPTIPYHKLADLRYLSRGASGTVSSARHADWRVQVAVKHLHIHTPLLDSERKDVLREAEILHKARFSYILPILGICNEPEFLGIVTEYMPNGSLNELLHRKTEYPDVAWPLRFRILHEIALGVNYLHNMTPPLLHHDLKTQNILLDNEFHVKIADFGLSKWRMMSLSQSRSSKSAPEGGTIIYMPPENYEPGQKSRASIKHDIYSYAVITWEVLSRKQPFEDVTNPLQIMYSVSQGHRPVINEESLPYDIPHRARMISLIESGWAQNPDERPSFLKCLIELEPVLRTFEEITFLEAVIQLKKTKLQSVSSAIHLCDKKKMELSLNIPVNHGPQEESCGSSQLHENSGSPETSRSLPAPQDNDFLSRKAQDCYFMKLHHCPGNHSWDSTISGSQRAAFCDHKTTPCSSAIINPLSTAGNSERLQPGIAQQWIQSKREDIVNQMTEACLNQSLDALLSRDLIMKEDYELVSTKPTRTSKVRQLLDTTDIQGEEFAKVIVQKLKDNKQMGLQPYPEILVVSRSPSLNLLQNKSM

As to “RICK-K38M: RICK ATP-binding site mutant, lysine at position 38 replaced by methionine”, the “phosphorylation of recombinant FADD” value with FADD was “did not”. For the same substance, the auto-phosphorylation in vitro entry with RICK was “dramatically decreased”.
